The data set can be described thus: label from the status in PepcDB records.

Take “MNNLQTKFPHIAIKLNEPLSKYTYTKTGGAADVFVMPKTIEEAQEVVAYCHQNKIPLTILGNGSNLIIKDGGIRGVILHLDLLQTIERNNTQIVAMSGAKLIDTAKFALNESLSGLEFACGIPGSIGGALHMNAGAYGGEISDVLEAATVLTQTGELKKLKRSELKAAYRFSTIAEKNYIVLDATFSLALEEKNLIQAKMDELTAAREAKQPLEYPSCGSVFKRPPGHFAGKLIQDSGLQGHIIGGAQVSLKHAGFIVNIGGATATDYMNLIAYVQQTVREKFDVELETEVKIIGEDK”: the protein production result is “not failed”.
As for “MNNNDLFQASRRRFLAQLGGLTVAGMLGPSLLTPRRATAAQAATDAVISKEGILTGSHWGAIRATVKDGRFVAAKPFELDKYPSKMIAGLPDHVHNAARIRYPMVRVDWLRKRHLSDTSQRGDNRFVRVSWDEALDMFYEELERVQKTHGPSALLTASGWQSTGMFHNASGMLAKAIALHGNSVGTGGDYSTGAAQVILPRVVGSMEVYEQQTSWPLVLQNSKTIVLWGSDLLKNQQANWWCPDHDVYEYYAQLKAKVAAGEIEVISIDPVVTSTHEYLGREHVKHIAVNPQTDVPLQLALAHTLYSENLYDKNFLANYCVGFEQFLPYLLGEKDGQPKDAAWAEKLTGIDAETIRGLARQMAANRTQIIAGWCVQRMQHGEQWAWMIVVLAAMLGQIGLPGGGFGFGWHYNGAGTPGRKGVILSGFSGSTSIPPVHDNSDYKGYSSTIPIARFIDAILEPGKVINWNGKSVKLPPLKMCIFAGTNPFHRHQQINRIIEGLRKLETVIAIDNQWTSTCRFADIVLPATTQFERNDLDQYGNHSNRGIIAMKQVVPPQFEARNDFDIFRELCRRFNREEAFTEGLDEMGWLKRIWQEGVQQGKGRGVHLPAFDDFWNNKEYVEFDHPQMFVRHQAFREDPDLEPLGTPSGLIEIYSKTIADMNYDDCQGHPMWFEKIERSHGGPGSQKYPLHLQSVHPDFRLHSQLCESETLRQQYTVAGKEPVFINPQDASARGIRNGDVVRVFNARGQVLAGAVVSDRYAPGVARIHEGAWYDPDKGGEPGALCKYGNPNVLTIDIGTSQLAQATSAHTTLVEIEKYNGTVEQVTAFNGPVEMVAQCEYVPASQVKS”, the entry is “failed”; as for “MNNPQCSYTVRCFFLALLVNLFLPNILPRQLASAQDVPSEASSDAPDLGVVWTPSTAPDSALAALDRIAATGATAVRLTHLPADTTATTIATRADSLGLRLYVDLPMADGSAPRPDEARPQADASLDQLRSLANRHASITHVGLARGASTTGSRRCDRLRRWTERIHDASASLHTYYVTPFVPSADRCADAVDQPLLDLRGHPRPTDRWRAWRTRTDSVGIGALGTWTRPAAASGLRVPHSAERQARYLETTLSRLLDPTRAAPPVVFVARWQDDDASLLPSRRYGLHDAAGTPRPAATVVRGLYSGTQRTFAFPDGSAPAGTSGLVLVGWGLVAVLGLLYARSLFVRETAVRYFTTPGFYREALRDGREVSFGANSLLLGLVGGSLGVAAARMARLATAQPETERVLAALPRVVGTALAPGVEHPTLAGVAVGGGALVLLLLWTGAGVAMARLGTRFTVAQGLMLVTWPCWPVLLAPPVALAAGPNAPLSPSLSTLVLLGGGTLVLLSVTLRVLFDYWRVTDAPAWTLLPLAALSPLALVGASLLVAAQYGVSFSLLWRLAVYT”, “failed”; as for “MNNRGAVTDMISQLPEPLILQILGSLPTKVAITTSVLSKQWQSHWKMMPKLEFDSFLRRLDLENVTKCLLSHKAPVLQTFSLKVRLDRRNNAVDIGCLIGIAMTRNVRKLVLEVYFHRGTFTFPRSLYHCETLETLELILNVVMDVPPSVYLKSLKTLYLLAVDFKDDESVINLLSGCPNLQDLVMRRNSSSNVKTFTIAVPSLQRLAIHNGSGTPQHCGYTINTPSLKYLKLEGSKAFESFMVENVSELIEVNITDVSEIIDEKLRVFLTSVTRLSLALSPSVFTFPTGIIFNQLVYLEICTNKTSWWKLLPLMLHSSPKLQVLKLIDDTDGMNYVEASGEWNQPKNVPECLHHLEKFIWEGYKWKREEIEVAKYILKNTNRLKRAIFSLKGISSEDRLVVVEDLKSVVMATTNSCQFQFI”, “failed”.
As for “MNNRVEILYCTQCRWLLRATWMTQELLTTFDQEIGELTLKPGTGGLFEVWVNGKRIWSRKEQGGFPEISELKRLVRDEVAPGRDLGHADQKGKTGASPAPAEP”, the entry is “failed”.
With “MNNSVSSGYDVIGDVHGCASQLEVLLHKLGYETGASGEYRHPERQAIFVGDLIDRGGEQLRVLEVVKAMVDAGSALIVMGNHEFNALAYHTEWPVGSGKYLRPHDDPDNPWSAKNTKQHAAFLDQVRGEDRQRCLEWFATIPLWLDLGELRVVHACWHDDSIGVVENLCGSNAPFGDVSHLVAASTEDDPLYEAVETLLKGPEINLVAHGQPEYHDKDGIPRDNARVQWWNSDARTLRDIAEMGGGFTTSTGEPYPPLPEIALTGADRSYIYTAEIPVFYGHYWRQGSPKHRHDWTDYTACVDFSAVKGGRLTAYRWSGESTIKAENYVTAD” the entry was “failed”; with “MNNTDCLLGRRKEINETAYANVLKKELVVYMKRKLMIFFIASVVTLLICSVAVLASGEDVHILINNNGIKFSIPPYVKDEEVFLPMREIFELYGFEVNWNGTERSAEAAKDGKIVKVKVGSNIVKLYGEDYNSKDDVFIFRDRIFISTDVIEAGLNIKVKWDKNKRTIYLNEYTNESITIVGNDNSVILGSNILVNISPRYDIDTVNKIIGENDEMLVEKNYTGAIRGYKELLKHISAKENPEEYIHVLINLGNAYVELASIVNREQNALEAILFYEEALKVDSIDKYPHKKALANRGMGSAYFILSTVRDVEKNTAKALEMFNEALNIFVKDGDQYNCGYLHYLKGRTYYWMAASTNTRDNIIKSLDSLEEALTTFNTENYKDEYIIARSCHGLVLTQFFNFSGEVEHLQRAFDAFNEVLDNITIEEKPILYASTYMQLASYYMYLANKDGDVESYYKCISCMQESLKVYTLDSDSYNYAVAYANIGKAYLLMSYLSQTNVNIDRALSAYEEALKVFKISQFPFNYASVQIDLGEAYTVKAGITGSEEDYNNAQNAFNNALKIYTLKNYPYQYAKTYSEFGKMYIALAYIKDKEENNKKAIECFNEALKVYSFEKYPVLYGYNQELIALSNIELSKIRDPKKHLNKSVEVCNNALKVFRKENIPYLYGVVNIYLGNSYTFLASIENTKENCIQAEKAYMNALEIFTKDASLTYYLEAMTGLAENYVIKSQVENRKENLEKAIAKCNDIIELLDRHRSSPYYGKAQYILLLSYLGLSDFENKEVNLNKALIANREAVSVFEEGNLVFDKSIALAAGANIYLKYSEVNNTVKNLTEAKRTVESALTYFKKENYPYQYAILMNSMGTIYQKLSEKENRIDNLKKSIEAYKEANEIFSIEEYGLYFAKTKHDMGDVYMKLAGSEDRKANIQKALECFSEAIRIYTNEDYPLIHEEIIKKMENIKK”, “failed”.
For “MNNTGLSVKKVVAIGIGSAIYVILARFTSIPTPIPNTNIELVFPFLAFFASIYGATVGFSVGFIGHALSDFIMYGQTWWSWVLATGILGWIIGLAYKRLDLKNGIFGLKQIILFNIVQIIANILAWIVVAPIGDIIIYSEPANKVFVQGISATISNGISILIIGTILLKAYASTKIKKGSLRKED”, the protein production result was “failed”.
With “MNNVTTTLTDTTWYKAGTITDVPENGGACAMIQGKQIAIFNFTRRDEWFATDNLCPHKQQMILSRGMIGDMSEEPKVACPFHKKSFSLKDGHCMSGDDYTIKTYPIKVEDGLIFIGLNE” the entry was “failed”.
With “MNPANGEVTSYWFPGTTSGILTRNGSMIHLLSITASVLHPDDPSLSERESVQVQQYRLSSLLAAVLLPVFGTLYSWADPQAVDPAWIRLALSGLLLGLFVGSYLSDRVCRNYVPLT” the entry was “failed”.
With “MNPDFLGALLIGLVGAGHCMGMCGGIASLLSLGSSSSKSSPTIPLFYNLGRLSSYALIGALVGGAISGLSELSGLAQSLAWLRFVAAIFMILVALYIAKWWQGLLIVEKMGQHLWKFISPAGKSLLPLKKPIHALPFGFVWGWLPCGLVYSALTWSAVSGSAVNGGLIMLAFGLGTLPSMLAVGYGASHFQKLQKSLIFRNISALILIVYGAYTAAGAMQMLGFI” the entry was “failed”; with “MNPGAYAVPSSAQGWTGTESIGKSSAVNHHRDDGGQEMAGALRKMAVYLGLVEDDRYDHRYADEYDDFEDFDEPLDERPSRNRSPRDDSRNNAVTDSSDHSPSRNERRSPAPAPATADLARITTLHPRTYNEARTIGEHFREGIPVIMNLTEMVDSDAKRLVDFAAGLIFGLHGSIERVTNKVFLLSPANVEVTAEDKARIAERGFFNQS”, “failed”; with “MNPGGAEVSVVIPAWNAEATLGRALASVRAQTLAPRQVIVVNDGSSDATPEIAARMATKTFPVTVIDRTGRGSGPAAARNAGIAAAGEPFVAFLDADDVWLPDKLARQMAALRASPDAVLCCCDAQWVGEDAPARTAHPTIYEDRPIKGGAEAWKEILLDCYVGTPCVVARRAALIEAGGFDERLVVGEDQDLWIRLALQGPVIALPEVLVRYGLSADSHMARHRALAASLWLPHFEALVSGLGARLSAGERDAILRARLWRMARSVYLDGRKDLGLSLMARAVAHGLPRRARMVFLARARLRSALGRNGLEHHHHHH”, “failed”.
Take “MNPIILALFDVSIFILLAEILSSLVQKYGLPKLIGELLAGMIIGPYALGSLLNQLLGFPLIGINSYIEFLAEFSVILLIFASGLEHGIAPIKSSGILGFLGATFGALLPFFAAYYFYISSFGLDSALILGTAMGATSLAAVASIIEEGKLKGKGINFMVSSAAADDVVDLLLLSVVIAILQGESTSVTSISLKIIALVVIWVVILVVSIILIPKITDRISDKYIEEFPLAVLFGLTLLMVSLGYSPIISAFVAGVAFANSVKNSKIKEISSTLLSVFGPLFFVYIGAEVNFLTLNLNTVILSLELTAIATIFKWLGIFPFALAYLRNAKAANTVALGMVPRGETGLVIASLGLSYNALNQEEFEGIVFMSIFTTLIGSALFKIYAKKHLVS”: the protein production result is “failed”.
As for “MNPPSGPRVPPSPTQEPSCMATPAPPSWWDSSQSSISSLGRLPSISPTAPGTWAAAWVPLPTVDVPDHAHYTLGTVILLVGLTGMLGNLTVIYTFCRSRSLRTPANMFIINLAVSDFLMSFTQAPVFFTSSLYKQWLFGETGCEFYAFCGALFGISSMITLTAIALDRYLVITRPLATFGVASKRRAAFVLLGVWLYALAWSLPPFFGWSAYVPEGLLTSCSWDYMSFTPAVRAYTMLLCCFVFFLPLLIIIYCYIFIFRAIRETGRALQTFGACKGNGESLWQRQRLQSECKMAKIMLLVILLFVLSWAPYSAVALVAFAGYAHVLTPYMSSVPAVIAKASAIHNPIIYAITHPKYRVAIAQHLPCLGVLLGVSRRHSRPYPSYRSTHRSTLTSHTSNLSWISIRRRQESLGSESEVGWTHMEAAAVWGAAQQANGRSLYGQGLEDLEAKAPPRPQGHEAETPGKTKGLIPSQDPRM”, the entry is “failed”; as for “MNPSHGRGLGSAGGSSSGRNQGGGGETVVEMFPSGLRVLVVDDDPTCLMILERMLRTCLYEVTKCNRAEMALSLLRKNKHGFDIVISDVHMPDMD”, “failed”.
